Test results from patent publication US8450280B2, “Activation of peptide prodrugs by hK2” (GenbSpera, Inc., priority 1999, dated 2013).

Target: T1, hK2 (Homo sapiens, UniProt P20151)
T1 construct: made in house
Experiment: Inhibition of hK2 by protease inhibitors (substrate H-Pro-Phe-Arg-AMC)
Type: biochemical
Settings: for Activity (%) of hK2, percentage of inhibitor-free control: 10 minutes of incubation, 8.3 nM hK2, 90 μM substrate
Description: Activity of hK2 (1.6 pmol) was monitored using the substrate H-Pro-Phe-Arg-AMC (SEQ ID NO: 55) (90 μM). Inhibitors, at commonly used concentrations, and hK2 (8.3 nM) were mixed and proteolysis of 90 μM H-Pro-Phe-Arg-AMC (SEQ ID NO: 55) was followed up to 20 minutes, starting directly or 10 minutes after mixing the enzyme with various inhibitors. Inhibition was evaluated by comparison with […] controls.
The proteolytic activity is expressed in percentage of inhibitor-free control after 10 minutes of incubation.
Therefore, PPACK can be used to obtain fast irreversible inhibition of hK2.

T1 sequence (P20151 25-261): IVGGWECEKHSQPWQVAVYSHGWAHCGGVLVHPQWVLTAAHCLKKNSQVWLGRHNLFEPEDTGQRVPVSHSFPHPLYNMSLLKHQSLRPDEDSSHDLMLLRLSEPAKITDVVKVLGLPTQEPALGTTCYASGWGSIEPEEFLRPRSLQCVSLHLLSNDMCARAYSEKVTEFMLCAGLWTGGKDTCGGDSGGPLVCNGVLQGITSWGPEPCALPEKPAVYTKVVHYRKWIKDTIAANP

B1: PCl: protein C inhibitor (PCI), plasma protease inhibitor (serpin) (protein)
chain: HRHHPREMKKRVEDLHVGATVAPSSRRDFTFDLYRALASAAPSQSIFFSPVSISMSLAMLSLGAGSSTKMQILEGLGLNLQKSSEKELHRGFQQLLQELNQPRDGFQLSLGNALFTDLVVDLQDTFVSAMKTLYLADTFPTNFRDSAGAMKQINDYVAKQTKGKIVDLLKNLDSNAVVIMVNYIFFKAKWETSFNHKGTQEQDFYVTSETVVRVPMMSREDQYHYLLDRNLSCRVVGVPYQGNATALFILPSEGKMQQVENGLSEKTLRKWLKMFKKRQLELYLPKFSIEGSYQLEKVLPSLGISNVFTSHADLSGISNHSNIQVSEMVHKAVVEVDESGTRAAAATGTIFTFRSARLNSQRLVFNRPFLMFIVDNNILFLGKVNRP
In the case of B1, the “Activity (%) of hK2, percentage of inhibitor-free control” value (inhibitor 0.016 μM) is reported as 50% and the “Activity (%) of hK2, percentage of inhibitor-free control” value (inhibitor 0.08 μM) is reported as 0%.

B2: SLPI: protease inhibitor present in the prostate (protein)
chain: SGKSFKAGVCPPKKSAQCLRYKKPECQSDWQCPGKKRCCPDTCGIKCLDPVDTPNPTRRKPGKCPVTYGQCLMLNPPNFCEMDGQCKRDLKCCMGMCGKSCVSPVKA
In the case of B2, the “inhibition of hK2 (in words)” value (8 nM hK2, 90 μM substrate) is reported as “inhibited hK2 weakly”, the “Activity (%) of hK2, percentage of inhibitor-free control” value (inhibitor 0.08 μM) is reported as 92% and the “Activity (%) of hK2, percentage of inhibitor-free control” value (inhibitor 4 μM) is reported as 35%.

B3: ACT: α1-antichymotrypsin purified from human blood plasma (protein)
chain: HPNSPLDEENLTQENQDRGTHVDLGLASANVDFAFSLYKQLVLKAPDKNVIFSPLSISTALAFLSLGAHNTTLTEILKGLKFNLTETSEAEIHQSFQHLLRTLNQSSDELQLSMGNAMFVKEQLSLLDRFTEDAKRLYGSEAFATDFQDSAAAKKLINDYVKNGTRGKITDLIKDLDSQTMMVLVNYIFFKAKWEMPFDPQDTHQSRFYLSKKKWVMVPMMSLHHLTIPYFRDEELSCTVVELKYTGNASALFILPDQDKMEEVEAMLLPETLKRWRDSLEFREIGELYLPKFSISRDYNLNDILLQLGIEEAFTSKADLSGITGARNLAVSQVVHKAVLDVFEEGTEASAATAVKITLLSALVETRTIVRFNRPFLMIIVPTDTQNIFFMSKVTNPKQA
In the case of B3, the “inhibition of the hK2 activity (in words)” value (100-fold molar excess, 20 minute measurement time) is reported as “no inhibition” and the “Activity (%) of hK2, percentage of inhibitor-free control” value (inhibitor 0.8 μM) is reported as 100%.
